Experiment [1] addresses human proton-activated chloride channel (PAC), reconstituted in MSP3D1 lipid nanodiscs (human) (UniProt Q9H813). Put plainly: cryo-EM structure.
The target is the same in experiment [2]. Put plainly: cryo-EM structure. This is another data set of the same source.

In general, stoichiometry N refers to a count of units in the complex or per binding partner.

Where two headings read alike, the source gives them in different places.

“human proton-activated chloride channel (PAC), reconstituted in MSP3D1 lipid nanodiscs (from UniProt Q9H813 1-350) (natural protein)”: the stoichiometry N in experiment [1] and in experiment [2] was 3 each time.

(Values after PMC7773282.)
